From article PMC3401468
Read-outs that look alike come from different tables or passages of the source.

How the values were obtained:
[1] = molecular target: T1, XPF-HLD (human, UniProt Q92889 12-672); assay: fluorescence polarization
T1 sequence: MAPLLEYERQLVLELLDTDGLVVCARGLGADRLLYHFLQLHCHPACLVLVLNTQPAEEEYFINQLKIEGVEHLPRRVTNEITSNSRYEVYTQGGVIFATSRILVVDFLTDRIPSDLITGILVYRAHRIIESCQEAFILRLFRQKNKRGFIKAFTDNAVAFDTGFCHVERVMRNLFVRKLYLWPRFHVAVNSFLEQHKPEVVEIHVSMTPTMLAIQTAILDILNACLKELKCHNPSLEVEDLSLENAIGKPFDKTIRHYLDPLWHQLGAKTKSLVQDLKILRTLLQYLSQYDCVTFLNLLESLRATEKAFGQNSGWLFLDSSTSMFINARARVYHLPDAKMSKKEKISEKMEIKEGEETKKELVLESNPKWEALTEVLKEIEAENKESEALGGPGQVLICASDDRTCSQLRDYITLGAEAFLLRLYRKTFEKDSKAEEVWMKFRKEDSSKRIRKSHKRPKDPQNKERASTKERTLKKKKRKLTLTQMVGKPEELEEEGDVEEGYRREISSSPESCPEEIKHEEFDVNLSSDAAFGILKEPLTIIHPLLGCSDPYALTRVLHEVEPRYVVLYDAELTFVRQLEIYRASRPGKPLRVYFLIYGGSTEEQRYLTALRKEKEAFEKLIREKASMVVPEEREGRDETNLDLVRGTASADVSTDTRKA

[2] = molecular target: T1, XPF-HLD; assay: fluorescence polarization; remark: listed apart in the source
[3] = molecular target: T1, XPF-HLD; assay: fluorescence polarization; remark: listed apart in the source
[4] = molecular target: T2, XPF;ERCC1 (human;human, UniProt Q92889;P07992 12-916;1-297, |); assay: SPR
T2 sequence 1: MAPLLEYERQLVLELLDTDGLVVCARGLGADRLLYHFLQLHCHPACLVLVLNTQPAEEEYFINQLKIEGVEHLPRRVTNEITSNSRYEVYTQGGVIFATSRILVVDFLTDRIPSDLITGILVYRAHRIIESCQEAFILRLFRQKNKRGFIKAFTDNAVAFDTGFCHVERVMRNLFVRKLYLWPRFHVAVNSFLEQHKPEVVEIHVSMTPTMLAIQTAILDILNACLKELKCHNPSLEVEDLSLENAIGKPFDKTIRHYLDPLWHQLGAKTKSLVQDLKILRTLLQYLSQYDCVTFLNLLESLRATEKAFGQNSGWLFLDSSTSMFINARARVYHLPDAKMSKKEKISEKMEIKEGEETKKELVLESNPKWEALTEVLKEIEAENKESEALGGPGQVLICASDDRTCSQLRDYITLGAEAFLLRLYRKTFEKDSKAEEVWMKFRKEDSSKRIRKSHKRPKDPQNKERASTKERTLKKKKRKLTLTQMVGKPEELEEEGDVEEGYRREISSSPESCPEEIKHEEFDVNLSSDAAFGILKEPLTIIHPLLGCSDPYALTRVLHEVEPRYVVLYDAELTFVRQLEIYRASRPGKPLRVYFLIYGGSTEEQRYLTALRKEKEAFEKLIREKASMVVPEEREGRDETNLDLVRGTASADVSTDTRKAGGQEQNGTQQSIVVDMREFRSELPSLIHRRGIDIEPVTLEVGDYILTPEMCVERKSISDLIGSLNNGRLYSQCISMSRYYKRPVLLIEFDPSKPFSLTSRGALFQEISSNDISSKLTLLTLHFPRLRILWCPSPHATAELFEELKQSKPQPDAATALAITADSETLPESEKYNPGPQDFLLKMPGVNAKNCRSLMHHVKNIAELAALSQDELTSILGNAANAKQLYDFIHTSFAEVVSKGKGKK
T2 sequence 2: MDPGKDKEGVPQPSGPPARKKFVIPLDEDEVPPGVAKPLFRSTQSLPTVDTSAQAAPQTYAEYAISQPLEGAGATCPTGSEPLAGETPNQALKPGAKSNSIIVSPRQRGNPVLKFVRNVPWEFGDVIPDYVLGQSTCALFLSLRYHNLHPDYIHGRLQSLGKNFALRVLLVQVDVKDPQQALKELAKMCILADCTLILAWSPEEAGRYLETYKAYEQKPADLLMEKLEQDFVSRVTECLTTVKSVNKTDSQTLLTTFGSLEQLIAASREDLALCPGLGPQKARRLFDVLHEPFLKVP

GCGCTCGGCGTTTTT (ssDNA) [15-mer single strand (FP)]
Kd [1]: 263 nM

CAGCGCTCGGTTCCGAGCGCTG (structured_DNA) [2T stem-loop duplex (FP)]
Kd [1]: 217 nM

CAGCGCCTGGTTTTTTTTTTTTTTTTTTTTCCAGGCGCTG (structured_DNA) [Stem10-loop20 X=C Y=T]
Kd [2]: 63 nM

CAGCGCTTGGTTTTTTTTTTTTTTTTTTTTCCAAGCGCTG (structured_DNA) [Stem10-loop20 X=T Y=T]
binding result [3]: binds

CAGCGCGGGGTTTTTTTTTTTTTTTTTTTTCCCCGCGCTG (structured_DNA) [Stem10-loop20 X=G Y=G]
binding result [3]: binds

CAGCGCTCGGTTCCGAGCGCTG (structured_DNA) [Duplex with 2T loop (stem10-loop2), SPR]
binding result [4]: no binding
